{
  "source": "the nanobody polyreactivity screen of Harvey et al. (2022)",
  "data": [
    {"assay": "yeast display, Sf9 membrane polyspecificity reagent, FACS + sequencing; frameworks hold sequencing errors", "procedure,_shortened": "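Galactose-induced (36–48 hours) yeast carrying a synthetic nanobody display library were exposed to 10% biotinylated, detergent-solubilized Sf9 membrane reagent at 4 °C for 1 hour. FACS followed streptavidin microbead enrichment, using low and high (top ~1%) gates for expression (anti-HA) and reagent binding (streptavidin). Colony PCR, MiSeq 2 × 250 sequencing and CDR-length filtering followed. Labels for polyreactivity reflect the gate of origin.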", "values": [
      {"sequence": "QVQLVESGGGLVQAGGSLRLSCAASGSTFPGNAMGWYRQAPGKERELVASIRRSGGSTYYADSVKGRFTISRDNAKNTVYLQMNSLKPEDTAVYYCAKRTFLVSGPRSYGWYGVYYWGQGTQVTVSS", "polyreactivity (PSR sort gate)": "high polyreactivity"},
      {"sequence": "QVQLVESGGGLVQAGGSLRLSCAASGIIFYVNAMGWYRQAPGKERELVAVISRRGGSTNYADSVKGRFTISRDNAKNTVYLQMNSLKPEDTAVYYCAAGYRTAYRGSSYYYWGQGTQVTVSS", "polyreactivity (PSR sort gate)": "high polyreactivity"},
      {"sequence": "QVQLEESGGGLVQAGGSLRLSCAASGSILYVYAMGWSRQAPGKERELVAAMTRSGDTTSYADSVKGRFTISRDFAKNTVYLQLNSLKPEDTAVYYCDAAERRYGRGYGYWGQCTQVTVSS", "polyreactivity (PSR sort gate)": "high polyreactivity"},
      {"sequence": "QVHLVESGGRLVQAGGSLRLSCAASGFIFQWYAMGWYRQAPGKERELVAAINSSGSTNYADSVKGRFTISRDNAKNTVYLQMNSLKPEDTAVYYCAAHWRYGRKFDYWGQGTQVTVSS", "polyreactivity (PSR sort gate)": "high polyreactivity"},
      {"sequence": "QVQLVESGGRLVQAGGSIRLSCAASGSTLNVNAMGGYRQAPGKERELVAAITSGGSTYYADSVKGRFTISRDNAKNTVYLQMNSLKPEDTAVYYCNKRRSWRPTYPIGGSGFYYWGQGTQVTVSS", "polyreactivity (PSR sort gate)": "low polyreactivity"},
      {"sequence": "QVQLVESVGGLVQAGGSLRLSSAASGFTFTHYAMGWYRQAPGKERELVAAISTSGGSTYYADSVKGRFTISRDNAKNTVYLQMNSLKPEDTAVYYCAARRDGWVQWGYYYWGQGTQVTVSS", "polyreactivity (PSR sort gate)": "low polyreactivity"},
      {"sequence": "QVQLVESGGGLVQAGGSLRLSCADSGSTIYGYAMGWYRQAPGKERELVAAISISGGGTYYADSVKGRFTISRDNAKNSVYLQMNSLKPEDTAVYYCARRYFWGQGTQVTVSS", "polyreactivity (PSR sort gate)": "low polyreactivity"},
      {"sequence": "QVQLVESGGGLVQAGGSLRLSCAASGYTFVNYAMGWYRQAPGKEREFVAAISRSGGSTYYADSVKGRFTISRDNAKNTVYLQMNSLKPEDSAVYYCALRGYPPYKYYYWGQGTQVTVSS", "polyreactivity (PSR sort gate)": "high polyreactivity"},
      {"sequence": "QVQLVESGGGLVQAGGSLRLSCAASGFIFGKYAMGWYRQAPGKERELVAAISRSSRTFYADSVKGRFTISRDNAKNTVYLQMNSRKPEDTAVYYCAVKKRAPDGDYWGQGTQVTVSS", "polyreactivity (PSR sort gate)": "high polyreactivity"},
      {"sequence": "QVQLVESGGGLVQAGGSLRLSCAASGSIFWYYAMGWYRQAPGKERELVADITIRGGRTYYADSVKGRFTISRDNAKNTVYLQMNSLKPEDTAVYYCAADWEYWGFGLYDYWGQGTQVTVSS", "polyreactivity (PSR sort gate)": "low polyreactivity"},
      {"sequence": "QDQLVESGGGLVQAGGSLRLSCAASGSNLYRNAMGWSRQAPGKERELVAAITSRGGSTYADSVTGRFTISRDNAKNTVYLQMNSLKPEDTAVYYCAKGYLYRRPTVTHGYWGQGTQVTVSS", "polyreactivity (PSR sort gate)": "low polyreactivity"},
      {"sequence": "QVQLVESGGGLVQAGGSLRLSCAASGSTLGRNAMGWYRQAPGKERELVASITRSGGSTYYADSVKGRFTISRDNAKNTVYLQMNSLKPEDTAVYYCAAEVQGQVGEFDYWGQGTQVTVSS", "polyreactivity (PSR sort gate)": "low polyreactivity"},
      {"sequence": "QVQLVESGGGLVQAGGSLRLSCAASGSTFDGYAMGWYRPAPGKERELVAGISTSGGSTYYADSVKGRFTISRDNAKNTVYLQMNSLKPEDSAVYYCAAEWFDQVKDPAADYISYEYWGQGTQVTVSS", "polyreactivity (PSR sort gate)": "low polyreactivity"},
      {"sequence": "QVQLQVSGGDLVQAGGSLRLSCAASGTINGLTSMGWYRQAPGKEREFVAAITDGGYTNYADSVKGRFTISRDNAKNTVYLQMISLKPEDTAVYYCAVLFSDDAYYAYWGQGTQVTVSS", "polyreactivity (PSR sort gate)": "low polyreactivity"},
      {"sequence": "QVQLVESGGGLVQAGGSLRLSCAASGSTFVPNAMGWYRQAPGKERELVAGISWSGGGTSYADSVKGRFTISRDNAKNTVYLQMNSLKPEDTAVYYCAVVGYEQNEYDYWGQGTQVTVSS", "polyreactivity (PSR sort gate)": "low polyreactivity"},
      {"sequence": "QVQLVESGGGLVQAGGSLRLSCAASGFIFSSYAMGWYRQAPGKERELVAAITSGGSTNYADSVKGRFTISRDNAKNTVYLQMNSLKPEDTAVYYCATVPGRSWFFHWWSTGGDDEYWGQGTQVTVSS", "polyreactivity (PSR sort gate)": "low polyreactivity"},
      {"sequence": "QVQLVESGGGLVQSGGSLRLSCAASGFTFYRYTMGWYRQAPGKERELVAISSDGSTNYADSVKGRFTISRDNAKNTVYLQMNSLKPEDTAVYYCNAVYYNWIGFDYWGQGTQVTVSS", "polyreactivity (PSR sort gate)": "low polyreactivity"},
      {"sequence": "QVQLVESGGGLVQAGGSLRLSCAASGRTFLWNDMGWSRQAPGKERELVAAITGSDGTYADSVKGRFTISRDNAKNTVYLQMNSLKPEDTAVYYCAAETYWYFPWKYDYWGQGTQVTVSS", "polyreactivity (PSR sort gate)": "low polyreactivity"},
      {"sequence": "QVQLVESGGGLVQAGGSLRLSCAASGSTFGAYAMGWYRQAPGKERELVAAISSSDGSTYYADSVKGRFTISRDNAKNTVYLQMNSLKPEDTAVYYCAAEYYSAVYIDEYWYDYWGQGTQVTVSS", "polyreactivity (PSR sort gate)": "high polyreactivity"},
      {"sequence": "QVQLVESGGGLVQAGGSLRLSCVPPDLPSTLNVMGWYRQAPGKERELVAAISQRGGSTYYADSVKGRFTISRDNAKNTVYLEMNSLKPEDTAVYYCAAGPGDSGDDYWGQGTQVTVSS", "polyreactivity (PSR sort gate)": "low polyreactivity"},
      {"sequence": "QVQLVESGGGLVQAGGSLRLSCAASGRTFARYAMGWYRQAPGKERELVASNRRGTSTNYADSVKGRFTISRDNAKNTVYLQMNSLKPEDTAVYYCAARVGTQGDHGDYWGQGTQVTVSS", "polyreactivity (PSR sort gate)": "high polyreactivity"},
      {"sequence": "QVQLVESGGGLVQAGGSLRISCAASGIIFRGNAMGWYRQAPGKERELVAAISSGGGTYYADSVKGRLTISRDNAKNTVYLQMNSLKPEDTAVYYCNRVRYYQYGYDYWGQGTEVTVSS", "polyreactivity (PSR sort gate)": "high polyreactivity"},
      {"sequence": "QVQLGESGGGLVQAGGSLRLSCAASGSIFGLYAMGWYRQAPGKERELVATITSGSSTTYADSVKGRFTISRDNAKNTVYLQMNSLKPEVTAVYYCGVDDLYGFDYWGQGTQVTVSS", "polyreactivity (PSR sort gate)": "low polyreactivity"},
      {"sequence": "QVQLVESGGGLVQAGGSLRLSCAASGSNFRSYAMGWYIQAPGKERELVAAITWGGNTYYADSVKGRFTISRDNAKNTVYLQMNSLKPEDTAVYYCAAKSYYTRRSKYDYWGQGTQVTVSS", "polyreactivity (PSR sort gate)": "high polyreactivity"},
      {"sequence": "QVHLVESGGGLVQAGGSLLLSCAASGSTQLGNAMGWYRQAPGKERELVAAISTSGDSTNYADSVKGRFTISRDNAKNTVYLEMNSLKPEDTAVYYCNAGGYLNSDVDRVGYWGQGTQVTVSS", "polyreactivity (PSR sort gate)": "low polyreactivity"},
      {"sequence": "QVQLVESGGGLVQAGGSLRLSCAASGGTFAVNVMGWYRQAPGKERELVAAITSNGGSTYYADSVNGRFTISRDNAKNTVYLQMNSLKPEDTAVYYCAAEGSGWYTGHYYYWGQGTQVTVSS", "polyreactivity (PSR sort gate)": "low polyreactivity"},
      {"sequence": "QVQLVESGGGLVQAGGSLRLSCAASGSIFWTNVMGWYRQAPGKERELVAAISYSDGSTYYADSVKGRFTISRDNAKNTVYLQMNSLKPEDTAVYYCAADQYYYWGGYDYWGQGTQVTVSS", "polyreactivity (PSR sort gate)": "low polyreactivity"},
      {"sequence": "QDQLVESGGGLVQAGGSLRLSCAASGSTFAGNGMGWYRQAPGKERELVAGIDVTGGSTYYADSVKGRFTISRDNAKNTVYLQMNSLKPEDTAVYFCNARYVYHSSFAGFDYWGQGTQVTVSS", "polyreactivity (PSR sort gate)": "low polyreactivity"},
      {"sequence": "QVQLVESGGGLVQAGGSLRLSCAASGFIFTYYAMGWYRAAPGKERELVAAIRGSGGRTYYADSVKGRFTISRDNAKNTVYLQMNSLKPEDTAVYYCTADPTWFGYVYYQYDYWGQGTQVTVSS", "polyreactivity (PSR sort gate)": "low polyreactivity"},
      {"sequence": "QVQLVESGGGLVQAGGSLRLSCAASGSTFDYNSMGWYRQAPGKERELVATINDSGGNTYYADSVKGRFTISRDNAKNTVYLQMNSLKPEDTAVYYCATVGYLYTPVVVTWWDWGDYWGQGTQVTVSS", "polyreactivity (PSR sort gate)": "low polyreactivity"},
      {"sequence": "QVQLVESGRGLVQAGGSLRLSCAGSGSIFEGYVMGWSRQAPGKEMELVAAITSGGGSTYYADSVKGRFTSSRDNAKNTVYLQMISVKPVDTALYYCNAVYRWVYRSYEYWGQGTQGTVSS", "polyreactivity (PSR sort gate)": "high polyreactivity"},
      {"sequence": "QVQLVESGGGLVQAGGSLRLSCAASGSIFYFNAMGWYRPAPGKERELVAAINISGSSTSYADSVKGRFTISRDNAKNTVYLQMNSLKPEDTAVYYCAAEDEPRILIVRVWDYYWGQGTQVTVSS", "polyreactivity (PSR sort gate)": "low polyreactivity"},
      {"sequence": "QVQLVESGGGLVQAGASLRLSCAASGRTFAYNAMGWSRQAPGKERELVATISNGGTTNYADSVKGRFTISRDNAKNTVYLQMNSLKPEDTAVYYCNRRSYTQVLMDYWGQGTQVTVSS", "polyreactivity (PSR sort gate)": "high polyreactivity"},
      {"sequence": "QVQLVESGGGLVQAGGSLRLSCAASGTFAVYTMGWYRQAPGKERELVAAITKSGGSTYYADSVKGRFTISRDNAKNTVYLQMNRLKPEDTAVYYCATRDSPRTKNGYYYWGQGTQVTVSS", "polyreactivity (PSR sort gate)": "high polyreactivity"},
      {"sequence": "QVQLEESGGGIVQAGGSLRLSSAASGRIYTPNAMGSYRQAPGKERELVAAITWSGGSTYYADSVKGRFTISRDNAKNTVYLQMNRLKPEDTAVYYCAVRYSRNLMYYWGQATQVTVSS", "polyreactivity (PSR sort gate)": "high polyreactivity"},
      {"sequence": "QVQLVESGGGLVQAGGSLRLSCADSGLTFWAYAMGWYRQAPGKARELVAGISSGVSTYYADSVKGRFTISRDNAKNTFYLQMNSLKPEDTEVYYCAAYVYTWYYYDVGYWGQGTQVTVSS", "polyreactivity (PSR sort gate)": "high polyreactivity"},
      {"sequence": "QVQLVESGGGLVQAGGSLRLSCAASGRIYDYYTMGWYRQAPGKERELVAAITWIGGSTYYADSVKGRFTISRDNAKNTVYLQMNSLKPEDTAVYYWNAEGTALPYRADTVGGYYYWGQGTQVTVSS", "polyreactivity (PSR sort gate)": "low polyreactivity"},
      {"sequence": "QVQLVESGGGLVQAGGSLRLSCAPSGRTLFTNAMGWYRQAPGKERELVAAISIGGTTYYADSVKGRFTISRDNAKNTVYLQMNSLKPEDTAVYYCNKVRRFHSEYGYWGQGTQVTVSS", "polyreactivity (PSR sort gate)": "high polyreactivity"},
      {"sequence": "QVQLVESGGGLVQAGGSLRLSCAASGYTFSFYAMGWYRQATGKERELVADISRSGGSTYYADSVKGRFTISRDNAKNTVYLQMNSQKPEDTAVYYCAARWPGAYHEYGYLGQGTQVTVSS", "polyreactivity (PSR sort gate)": "high polyreactivity"},
      {"sequence": "QVQLVESGGGLVQAGGSLRLSCAASGLTFAFYAMGWYRQAPGKEMELVARIRTSAITYYADSVKGSFTISRDNAKNTVYLQMNSLKPEDTAVYYCAAEEGRVFSGGYDYWGQGTQVTVSS", "polyreactivity (PSR sort gate)": "high polyreactivity"},
      {"sequence": "QVQLVESGGGLVQAGGSLRLSCAASGSTFDYYTMGWYRQAPGKERELVAAISYSGSRTYYADSVKGRFTISRDNAKNTVYLQMNSLKPEDTAVYYCARVASSVWYKQEYSYYNFDYWGQGTQVTVSS", "polyreactivity (PSR sort gate)": "high polyreactivity"},
      {"sequence": "QVQLVESGGGLVQAGGSLRLSCAASGFIFARYAMGWNRQAPGKERELVAAISTSGGSTYYADSVKGRFTISRDNAKNTVYLQMNSLNPEDTAVYYCNKLRLSRLVHPSGYYWGQGTQVTVSS", "polyreactivity (PSR sort gate)": "high polyreactivity"},
      {"sequence": "QVQLVESGGGLVQAGGSLRLSCAASGSIFRYNTMGRYRQAPGKERELVATITRRGGSTYYADSVKGRFTISRDNAKNTVYLQMNSLKPEDTAVYYCNADNFGGPYNYWGQGTQVTVSS", "polyreactivity (PSR sort gate)": "low polyreactivity"}
    ]}
  ]
}
